# Measured values: the nanobody polyreactivity screen of Harvey et al. (2022)
# Assay: yeast display, Sf9 membrane polyspecificity reagent, FACS + sequencing; frameworks hold sequencing errors
# Procedure, shortened: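 Sorting gates, low and high (top ~1%), were placed on anti-HA fluorescence to track expression and on streptavidin fluorescence to track reagent binding. A clone's polyreactivity label is taken from the gate it came out of. The reagent was 10% biotinylated, detergent-solubilized Sf9 membrane, applied for 1 hour at 4 °C to galactose-induced yeast display cells.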
row,Sequence,polyreactivity (PSR sort gate)
1,QVQLVESGGGLVQAGGSLRLTCAASGSIFQRNAIGWYRQAPGKERELVAAITASGGRTYYADSVKGRFTISRDNAKNTVYLQMNSLKPEDTAVYYCAARGRTYCGGRTYDYWGHGTQVTVSS,high polyreactivity
2,QVQLVESGGGLVQAGGSLRLTCAASGSIFRYYAMGWYRQAPGKERELVATISSGGRTYYADSVKGRFTISRDNAKNTVYLQMNSLKPEDTAVYYCAAVRLTWTAKYNYWGQGTQVTVSS,high polyreactivity
3,QVQLVESGGGLVQAGGSLRLTCAASGSIFTGYTMGWYRQAPGKERELVASISRRGGRTYYADSVKGRFTISRDNAKNTVYLQMNSLKPEDTAVYYCAVDRVPWRYQDSYNYWGQGTQVTVSS,high polyreactivity
4,QVQLVESGGGLVQAGGSLRLTCAASGSIFYPYSMGRYRPAPGKERELVAAISSSGGSTYYADSVKGRFTISRDNAKNTVYLQMNSLKPEDTADYNCAARGKKHAYDYWGQGTQVTVSS,low polyreactivity
5,QVQLVESGGGLVQAGGSLRLTCAASGSIFYVNAMGWYRQAPGKERELVAAISVRGGRTYYADSVKGRFTISRDNAKNTVYLQMNSLKPEDTAVYYCATRISTVGRYDYWGQGTQVTVSS,high polyreactivity
6,QVQLVESGGGLVQAGGSLRLTCAASGSTFEVYAMGWYRQAPGKEREFVAAITVDGGSTYYADSVKGRFTISRDNAKNTVYLQMNSLKPEDTAVYYCAADSGSWEYYYWGQGTQVTVSS,low polyreactivity
7,QVQLVESGGGLVQAGGSLRLTCAASGSTFGYYAMGWNRQATGKERELVASITSDGSTNYADSVKGRFTISRDNAKNTVYLQMNSLKPEDTAVYYCAAYVWRYWHEYDYWGQGTQVTVSS,low polyreactivity
8,QVQLVESGGGLVQAGGSLRLTCAASGSTFKSYAMGWYRQDPGKERELVAAITVSGGSTYYADSVKGRFTISRDNAKNTVYLMMNSLTPEDTSVYYCAADSVLLKDTGYDYWGQGTQVTVSS,low polyreactivity
9,QVQLVESGGGLVQAGGSLRLTCAASGSTFPVYAMGWSRQAPGKERELVASISSGADTIYADSVKGRFTISRDNAKNTVYLQMNSLKPEDTSVYYCAVYRPGLTYYDYDYWGQGTQVTVSS,low polyreactivity
10,QVQLVESGGGLVQAGGSLRLTCAASGSTFRENAMGWNRQAPGKERELVAAITSGGSTYYADSVKGRFTISRDNAKNTVYLQMNSLKPEDTAVYYGNADLEPYDYWGQGTQVTVSS,low polyreactivity
11,QVQLVESGGGLVQAGGSLRLTCAASGSTFSYYAMGCYRQAPGKERELVAAISTRGSSTYYADSVKGRFTISRDNAKITVYVQMNSLKPEDTAVYYFAVDQYKYDCFYDYYGYTYGYWGQGTQVTVSS,high polyreactivity
12,QVQLVESGGGLVQAGGSLRLTCAASGSTFVNYTMGWYRQAPGKERELVAAIRYRDGSTYYADSVKGRFTISRDNAKNTVYLQMNSLKPEDTAVYYCNTRITQVGDYIYDYWGQGTQVTVSS,low polyreactivity
13,QVQLVESGGGLVQAGGSLRLTCAASGSTFVRYAMGWSRQAPGKERELVAAISRGGRTNYADSVKGRFTISRDNAKNTVYLQMNSLKPEDTAVYDCAKDRNIYYTYDYWGQGTQVTVSS,low polyreactivity
14,QVQLVESGGGLVQAGGSLRLTCAASGSTFVWYAMGWSRQAPGKEREFVATISWSDGSTYYADSVKGRFTISRDNAKNTVYLQMNSLKPEDTAVYYCASDVDRFFTYKYDYWGQGTQVTVSS,low polyreactivity
15,QVQLVESGGGLVQAGGSLRLTCAASGSTFYRYAMGWYRQAPGKERELVAAISTSGGRTYYADSVKGRFTISRDNAKNTVYLQMNSLKPEDTAVYYCAADQYRYYRSTYDYWGQGTQVTVSS,high polyreactivity
16,QVQLVESGGGLVQAGGSLRLTCAASGSTFYVYAMGWYRQAPGKERELVAAIDDSGDRTYYADSVKGRFTISRDNAKNTVYLQMNSLKPEDTAVYYCAAEYDSWEYDYWGQGTQVTVSS,low polyreactivity
17,QVQLVESGGGLVQAGGSLRLTCAASGSTYTGYAMGWYRQAPGKERELVAAISISGGRTFYADSVKGRFTISRDNAKNTVYLQMNSLKPEDTAVYYCAAYLRGSKYSFDYWGQGTQVTVSS,high polyreactivity
18,QVQLVESGGGLVQAGGSLRLTCAASGYIFGVYAMGWYRQAPGKERELVATISSGGSTNYADSVKGRFTISRDNAKNTVYLQMNSLKPEDTAVYYCAAERYWTYYSGFVYGGDNYWGQGTQVTVSS,low polyreactivity
19,QVQLVESGGGLVQAGGSLRLTCAASGYIFNQYTMGWYRQAPGKERELDADISSGGSTKYADSVKVRFTISRDNAKNTVYLQMISRKAEDTAFYYCNAEYVYGYPTAYDWEYDYWGQGTQVTLSS,high polyreactivity
20,QVQLVESGGGLVQAGGSLRLTCAASGYIQPKNTMGWYRQAPGKERELVAAISWSGGSTFYADSVKGRFTISRDNAKNTVYLKMNSLKPVDTAVYYCAADRSWSWYYRYDYWGQGTQVTLSS,low polyreactivity
21,QVQLVESGGGLVQAGGSLRLTCAASGYTIIQYAMGWYRQAPGKERELVAGITWSGGSTYADSVKGRFTISRDNAKNTVYLQMNSLKPEATAVYYCAADDRDIYQYGTPYGSGIRYDYWGQGTQVTVSS,low polyreactivity

row,Sequence,polyreactivity (PSR sort gate)
1,QVQLVESGGGLVQAGGSLRLTCAATGSTLYFYAMGWYRQAPGKERELVASISGTGGRTDYADSVKGRFTISRDNAKNTVYLQMNSLKPEDTAVYYCAADLIRRYGDGYWGQGTQVTVSS,high polyreactivity
2,QVQLVESGGGLVQAGGSLRLTCAPSRSIFVAYTMGWYRQAPGKERELVAAISRGGSTNYADSVKGRFTISRDNAKNTVYLQMNSLTPEETAVYYCAAKVWDGQLLYYWGQGTQVTVSS,low polyreactivity
3,QVQLVESGGGLVQAGGSLRLTCASSGITFGSYAMGWYTQAPGKERELVAAITWRGGSTFYADSVKGRFTISRDNAKITVYLQMNSLKPEDTAVYYCAATLTKYLPRYYWGHGTQVTVSS,low polyreactivity
4,QVQLVESGGGLVQAGGSLRLTCGASGFTFDSYAMGWSRQEPGKERELVAAISTIGGRTYYADSVKGRFTISRDNAKNTVYLQMNSLKPEDTAVYYCAAEQGTPSTNWYDYWGQGTQVTVSS,low polyreactivity
5,QVQLVESGGGLVQAGGSLRLTCGASGRIFRGYAMGCSRQAPGKERELVASISGGDSTYADSVKGRYTISRDNAKNTVYLQINSLKPEDTSVYYWAASSWYPALREYWGQGTQVSVSS,low polyreactivity
6,QVQLVESGGGLVQAGGSLRLTCPASGSTFHGYDMGCYRQAPGKERELVAAITSSGDDTYYADSVKGRFTISRDNAKNTVYLQMNSLKPEDTAVYYCAAEYTEGYTHDYWGQGSQVTVSS,low polyreactivity
7,QVQLVESGGGLVQAGGSLRLTCSASGSTFPSNSMGGYRQAPGKERELVAAITFRGGRTYYADSVKGRFTISRDNAKNTVYLQMNSLIPEDTAVYYCAAERWWYTVRGYGYWGQGTQVTVSS,high polyreactivity
8,QVQLVESGGGLVQAGGSLRLTFAASGSTFDYYAMGWYRQAPGKERELVAGITSDGSTYYADSVKGRFTISRDNAKNTVYLQMNSLKPEDTAVYYCDVDVDPVFYTTYYYSYYYWGQGTQVTVSS,low polyreactivity
9,QVQLVESGGGLVQAGGSLRLTSAASGRTFTSNVMGWYSQAPGKEWEVVAAISSSGGRTYYADSVKGRFTISRDNAKNTVYLQMNSLKPEDTAVYYCAGDGDPEYPRYGYWGKGTQVTVSS,high polyreactivity
10,QVQLVESGGGLVQAGGSLRLTSAASGSTIDYYAMGWYRQAPGKERELVARISKRGGSTYYADSVKGRFTISRDNAKYTVYLQMNSLKPEDTAVYFCAKRVRISYTNYHFDYWGQCTQVTVSS,high polyreactivity
11,QVQLVESGGGLVQAGGSLRRSCAASGSTFTTYAMGWYRQAPGKERELGAAITSVGSTYYEDSVKGRCTISRDNAKNTVYLQLNSLKPEDTAVYYCNVVYRDQYNDWGQGTQVTVSW,low polyreactivity
12,QVQLVESGGGLVQAGGSLRSSCAASGGTFYGYAMGWYRQAPGKERELVAAISFSGGRTYYADSVKGSFTISRDNAKNTVYLQMNSLKPEDTAVYYCAALRRYPRPNIYGYWGQGTQVTVSS,low polyreactivity
13,QVQLVESGGGLVQAGGSLRVICAASGSTFSGNAMGWSRKAPGKERELVAAISRRGGRTYYADSVKGRFTISRDNAKNTVFLQMNRLKPEDTAVYYCAATSGVYRVGIIKYDYWGQGTQVTVSS,high polyreactivity
14,QVQLVESGGGLVQAGGSLRVSCAASGFISGYYTMRWYRQAPGKEWELVAVINSGGSTYYADSVKGRFTISRDNAKNTVYLQMNSLKPEDTAVYYCAKLGGKYSRYYYWGQGTQVTVSS,low polyreactivity
15,QVQLVESGGGLVQAGGSLRVSCAASGFTFNYYAMGWYRQAAGKERELVAAISKDGTRTYYADSVKGRFTISRDNAKNTVYLQMNRQKPEDTAVYYCAAKASPAGSNYWGQGTQVTVSS,high polyreactivity
16,QVQLVESGGGLVQAGGSLRVSCAASGFTFSYYVMGWYRQAPGKERELVAAITTSGSGTYYADSVKGRFTISRDNAKNTVYLQMNSLKPEDTAVYYCAARPYRGFVSRYGYWGQGTQVTVSS,low polyreactivity
17,QVQLVESGGGLVQAGGSLRVSCAASGFTFVGTAMGWYRQAPGKERELVAAITWSGGRTYYADSVKGRFTISRDKAKNTVYLQMNSLTPEDTAVYYCATRWRGRMDYWGQGTQVTVSS,high polyreactivity
18,QVQLVESGGGLVQAGGSLRVSCAASGGTFCNYAMGWNRQAPGKERELVAAITSGGGSTYYADSVKGRFTISRDIAKNTVYLQMNSLKPEDTAVYYCAARRSSYGYWGQGTQVTVSS,high polyreactivity
19,QVQLVESGGGLVQAGGSLRVSCAASGITFNEYAMGWYRQAPGKEREFVAAITFSGDSTYADSVKGRFTISRDNAKNTVYLQMNSLKPEDTAVYYCAKRGGRQTYYYWGQGTQVTVSS,high polyreactivity
20,QVQLVESGGGLVQAGGSLRVSCAASGLNFYGNAMGWYRQAPGKERELVAAISWSGGNTSYADSVKGRFTISRDNAKNTVYLQMNSLKPDDTAVYYCNADSLPSVERYGYWGQGTQVTVSS,low polyreactivity
